Data from paper PMC9582512 (2022).

What was measured:
[1] = biological target: IgG4 F127 pre-complexed with dimeric Fel d 1 (human | cat, UniProt P30438 23-92; P30440 18-109); assay: BLI; pre-complexed with Fel d 1
[2] = biological target: IgG1 F127 pre-complexed with dimeric Fel d 1 (human | cat, UniProt P30438 23-92; P30440 18-109); assay: BLI; pre-complexed with Fel d 1

- koff [1]: 0.000126 s⁻¹
- koff [2]: 0.000279 s⁻¹
B1: human recombinant biotinylated FcγRIIb (CD32b) (receptor)
chain: TPAAPPKAVLKLEPQWINVLQEDSVTLTCRGTHSPESDSIQWFHNGNLIPTHTQPSYRFKANNNDSGEYTCQTGQTSLSDPVHLTVLSEWLVLQTPHLEFQEGETIVLRCHSWKDKPLVKVTFFQNGKSKKFSRSDPNFSIPQANHSHSGDYHCTGNIGYTLYSSKPVTITVQAP
modifications: biotin (biotinylated; site not stated)
